Results published in PMC5207774, “Atomic structures of fibrillar segments of hIAPP suggest tightly mated β-sheets are important for cytotoxicity” (eLife, 2017).

Biological target: the molecule itself
Assay: crystal structure; MicroED (electron diffraction in a cryo electron microscope, 200 kV) from 3D peptide crystals only a few hundred nanometers thick; self-association of the peptide in the crystal

| Protein | binding result |
| --- | --- |
| SGNNFGAILSS (human islet amyloid polypeptide (hIAPP), residues 19-29, with the early onset familial mutation S20G; numbers count on: the mature protein (37-residue hormone); Forms 3D nanocrystals and fibrils; the number of chains in the assembly is open-ended; also called spine segment 19–29 S20G; source: synthetic peptide: GenScript, greater than 98% purity) [hIAPP segment 19–29 S20G (19-SGNNFGAILSS-29)] | binds |
| FLVHSSNNFGA (human islet amyloid polypeptide (hIAPP), residues 15-25, wild type; numbers count on: the mature protein (37-residue hormone); Forms 3D nanocrystals and fibrils (striated ribbons); also called spine segment 15–25 WT; source: synthetic peptide: GenScript, greater than 98% purity) [hIAPP segment 15–25 WT (15-FLVHSSNNFGA-25)] | binds |
